The supplement of paper PMC10567573
± gives the standard deviation.

Test: protein stability index of a GFP-peptide fusion (GPS, HEK-293T) (PSI 1-6); higher = more stable
[1] = treatment: DMSO, c terminus: a fixed tail appended
[2] = treatment: MLN4924 1 uM, 8 h, c terminus: a fixed tail appended
[3] = treatment: DMSO, c terminus: native
[4] = treatment: MLN4924 1 uM, 8 h, c terminus: native
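Further: 24-mer peptide tiles fused after GFP, lentivirally expressed, FACS-sorted into six equal bins by GFP/DsRed ratio, decoded by Illumina sequencing, PSI is the read-weighted mean bin number.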

| Sequence | protein stability index [1] | protein stability index [2] | protein stability index [3] | protein stability index [4] |
| --- | --- | --- | --- | --- |
| EKQELQELNDRFANFIEKVRFLEQ [PRPH] | 3.08 ± 0.17 | 3.29 ± 0.34 |  |  |
| HARYRVIHFIAVAVCLLGVGTMVG [SLC35F2] | 2.42 ± 0.42 | 2.28 ± 0.15 |  |  |
| LGVLHPNTKLRQAERLFENQLVGP [APMAP] | 2.57 ± 0.32 | 3.16 ± 0.24 |  |  |
| VNPTGNLPMWSNQTWNNSTWSNQT [NANOGP8] | 2.75 ± 0.2 | 2.98 ± 0.35 |  |  |
| KPPMMPQAQPAIPRPNRLFLRQLR [C2CD2L] | 3.22 ± 0.17 | 3.43 ± 0.42 |  |  |
| QDGVLDLSTKKSPCAGSTSLSHSP [LCOR] | 4.95 ± 0.14 | 4.96 ± 0.2 |  |  |
| YDTTLALGHAAAFSDDCDLPSAQD [GLT8D2] | 5.33 ± 0.2 | 5.31 ± 0.3 |  |  |
| IIPTPDEEEKILRVKLEEDPDGEE [ZNF24] | 5.44 ± 0.4 | 5.52 ± 0.57 |  |  |
| CAPYDSRLLGSARPELGAALGIYG [IRX6] | 2.56 ± 0.37 | 2.13 ± 0.55 |  |  |
| LLRDQFVKALEDFEDLCDRVFSDE [FAM9B] | 2.97 ± 0.29 | 3.17 ± 0.38 |  |  |
| YQQLEDDKLSQKSSSSKLSRSPLK [EPB41L3] | 4.94 ± 0.6 | 5.04 ± 0.28 |  |  |
| SGGPPPKRSAPSGPVRSSSGMGGR [RBMX] | 4.59 ± 0.29 | 4.51 ± 0.21 |  |  |
| QLTNTSGTVIGVTSCIVIILIIIS [NETO1] | 2.43 ± 0.27 | 2.43 ± 0.28 |  |  |
| SKSSHPLIRSLFHGFLFMIFQIGV [SOAT1] | 2.81 ± 0.84 | 2.72 ± 0.18 |  |  |
| ERAHKGEKPYGCSECGKAFPRKSE [ZNF649] | 4.23 ± 0.12 | 4.7 ± 0.48 |  |  |
| AAFYKGYVPNMLGIIPYAGIDLAV [SLC25A25] | 2.78 ± 0.45 | 3.31 ± 0.57 |  |  |
| VTATDQKVEKMLISSIKEKYPSHS [IMPA1] | 3.94 ± 0.14 | 4.27 ± 0.23 |  |  |
| TLHNAQTQEPIFTFTASFSGKVFP [TRIM15] | 2.49 ± 0.23 | 2.56 ± 0.3 |  |  |
| LLPLRTKVAKLLGYSTHADFVLEM [NLN] | 2.22 ± 0.43 | 2.32 ± 0.28 |  |  |
| SSCENKRADLVFIIDSSRSVNTHD [MATN2] | 2.81 ± 0.22 | 2.92 ± 0.13 |  |  |
| SELTSLCQSVLEDFNLCLFYLPSS [SMG5] | 2.65 ± 0.64 | 2.42 ± 0.39 |  |  |
| RGGGDPWTNGSGLALCQRYYHRGH [MCOLN1] | 3.08 ± 0.23 | 3.2 ± 0.28 |  |  |
| LTTSQERELGIRQRDEQLRALQER [FBF1] | 5.02 ± 0.38 | 5.24 ± 0.29 |  |  |

| Sequence | protein stability index [1] | protein stability index [2] | protein stability index [3] | protein stability index [4] |
| --- | --- | --- | --- | --- |
| YFTDTDELQLEAANETYENNFDNL [ATF6] | 4.66 ± 0.14 | 4.337 ± 0.033 |  |  |
| ATAFSKLKPESSQQPGQDALAVKA [ZBED1] | 4.8 ± 0.5 | 5.21 ± 0.12 |  |  |
| PPPPPPSRGGPPPPPPPPHNSGPP [WASL] | 5.28 ± 0.17 | 5.3 ± 0.2 |  |  |
| CNPLRYSVLMGHGVCMGLVAAACA [OR10K2] | 3.37 ± 0.59 | 2.83 ± 0.3 |  |  |
| MTESLEASEFLEQSMSQTRELLLD [RSPH3] | 4.9 ± 0.12 | 4.98 ± 0.32 |  |  |
| LESLEDTHIMKGEDDALSDKHGCP [TRIB1] | 5.23 ± 0.69 | 5.37 ± 0.57 |  |  |
| CSVHYVSDSGDGVYAGRPLSVIQM [FBXO34] | 2.37 ± 0.78 | 2.75 ± 0.68 |  |  |
| TQPGIRRARDKALSGGKRKETLV [NET1] |  |  | 4.29 ± 0.3 | 4.15 ± 0.38 |
| KDRMKSDHKRETERVVREALEKLR [ZMYND11] | 3.18 ± 0.13 | 3.58 ± 0.32 |  |  |
| FSHTLVSLSLFGCTNIFYEEENPG [ZER1] | 2.65 ± 0.12 | 2.29 ± 0.029 |  |  |
| VQEDLEAEFQSLFSLLEELKEGML [FSD1] | 2.99 ± 0.57 | 3.01 ± 0.53 |  |  |
| HDGHLYLGSFRSPFLCRLSLQAV [APMAP] |  |  | 2.82 ± 0.33 | 3.31 ± 0.55 |
| SSSSSGVLMVGPNFRVGKKIGCGN [CSNK1G1] | 3.58 ± 0.34 | 3.68 ± 0.11 |  |  |
| QGSLSNTYLSKVDPDGKKIKQIQQ [FBXO33] | 4.28 ± 0.31 | 4.34 ± 0.18 |  |  |
| RAPRSPGQVTPRGLRLRLPRRESL [C6orf223] | 4.19 ± 0.35 | 4.41 ± 0.25 |  |  |
| VKLMMSTLPKSLSLPTTAPSNSSS [MYBL2] | 3.24 ± 0.18 | 3.33 ± 0.24 |  |  |
| YKILLDVKTRLEQEIATYRRLLEG [KRT17] | 2.32 ± 0.14 | 2.39 ± 0.37 |  |  |
| LRKQLQPTHCKYEGPRKARRLWFA | 2.43 ± 0.089 | 2.07 ± 0.25 |  |  |
| TMLSHYRPFYVNKGNGIGSNEAP [TRIM29] |  |  | 3.1 ± 0.24 | 3.14 ± 0.25 |
| QQERNDTNFHGVCMFCNEEFLGNR [ZNF277] | 2.96 ± 0.34 | 2.99 ± 0.6 |  |  |
| TIQQEKLLAEKEEKLQKEQKELQD [SASS6] | 5.52 ± 0.31 | 5.54 ± 0.23 |  |  |
| TGGSADLFGGFADFGSAAASGSFP [CLINT1] | 3.69 ± 0.35 | 3.62 ± 0.24 |  |  |
| TPPPGPASAQPLPAPEAAHTTGPT [TFE3] | 5.38 ± 0.27 | 5.38 ± 0.084 |  |  |

| Sequence | protein stability index [1] | protein stability index [2] | protein stability index [3] | protein stability index [4] |
| --- | --- | --- | --- | --- |
| NGNSYICKCSEGFVLAEDGRRCKK [MATN2] | 3.75 ± 0.28 | 4.1 ± 0.19 |  |  |
| VDEYFRQPVVDTFDIRILMAKSVK [CARM1] | 2.47 ± 0.46 | 2.64 ± 0.63 |  |  |
| KMSNSFHGIRPPQLEQPEKMPVLK [RHOBTB3] | 4.33 ± 0.16 | 4.34 ± 0.068 |  |  |
| VPGGAGPCATVSVFPGARLLTIGD [CARM1] | 2.73 ± 0.43 | 2.53 ± 0.48 |  |  |
| QYHHSKIRNRGYNLIYRSTRHLKR [TMEM192] | 3.07 ± 0.25 | 2.98 ± 0.091 |  |  |
| ELADARRALDDTARERAKLQIELG [LMNB1] | 4.72 ± 0.075 | 4.69 ± 0.15 |  |  |
| VIPECAHGGLYKPVQCHPSTGYCW [SMOC2] | 2.38 ± 0.56 | 2.77 ± 0.9 |  |  |
| QTGDLLSTFHTISPSFQLKAAALP [PLAGL1] | 2.6 ± 0.22 | 2.67 ± 0.22 |  |  |
| KGVNRKLGRTGLYPSYKVREKIET [FUT8] | 3.2 ± 0.31 | 3.4 ± 0.22 |  |  |
| EDHLAVKHFSVEGQLEFRALLFIP [HSP90AB1] | 1.57 ± 0.54 |  |  |  |
| LLSLVTFTFLSAKCLQGNADGDGG [PCDHGC5] | 3.46 ± 0.031 | 2.93 ± 0.44 |  |  |
| KSAHQTHSSWTPPNAQYWSQFHSV [DNAJC4] | 2.74 ± 0.28 | 2.67 ± 0.18 |  |  |
| NALVTKLLLDCGAEVNAVDNEGNS [FEM1B] | 3.64 ± 0.19 | 3.72 ± 0.17 |  |  |
| GSANDYKDTLGKGSSLSAPSKKTS [KRT71] | 5.33 ± 0.22 | 5.3 ± 0.22 |  |  |
| TMQSMFAKNFHVKAVMKTSVLLSW [PTPRD] | 2.48 ± 0.73 | 2.94 ± 0.42 |  |  |
| KKEMNKSDLNTNNLLFKPPVESHI [KMT2E] | 3.47 ± 0.39 | 4.12 ± 0.26 |  |  |
| DGAPALCPSPEALSPEPPVYSLQD [PRKX] | 5.37 ± 0.098 | 5.21 ± 0.15 |  |  |
| VDREKGLSAEPGWQAKREEEEEEE [CHGA] | 5.36 ± 0.48 | 5.7 ± 0.18 |  |  |
| NRLLQEENRTLQVLRAEHRGFQEE [CBY2] | 4.43 ± 0.21 | 4.46 ± 0.12 |  |  |
| KEAAEAIEAEGATAPLTELLHSRN [CTNNB1] | 5.38 ± 0.28 | 5.28 ± 0.11 |  |  |
| PKETQPFPKSEQVYLHFLSVVTED [ZNF232] | 2.69 ± 0.24 | 2.99 ± 0.28 |  |  |
| AAPRTLAAHPPLPLLPPAMGTEPA [TBX6] | 4.61 ± 0.43 | 4.57 ± 0.29 |  |  |
| GGSGPAGLRASTSDGILRGNGTGY [RHOBTB2] | 4.31 ± 0.27 | 4.24 ± 0.39 |  |  |

| Sequence | protein stability index [1] | protein stability index [2] | protein stability index [3] | protein stability index [4] |
| --- | --- | --- | --- | --- |
| VFKCVKRLDGCIYAIKRSKKPLAG [WEE1] | 2.23 ± 0.27 | 2.28 ± 0.15 |  |  |
| EDQVVVNKAAVMVHQLSKKEASRH [CTNNB1] | 4.82 ± 0.25 | 4.8 ± 0.22 |  |  |
| VSVESQQVQQVEVEATVKPELTAA [PRPH] | 5.23 ± 0.089 | 5.25 ± 0.12 |  |  |
| ADTEEPTKDPDVAFHGLSLGLSLT [PSD2] | 4.37 ± 0.25 | 4.44 ± 0.27 |  |  |
| LDVKSPPEPRSEVVPARLKRASAP [RIPK4] | 5.08 ± 0.49 | 5.11 ± 0.092 |  |  |
| AVAAATAAVEGSGGSGGGSHHHHQ [KCNA4] | 5.04 ± 0.33 | 5.07 ± 0.35 |  |  |
| MEEQREALRKIIKTLAVKNEEIQS [FSD1] | 3.15 ± 0.1 | 3.16 ± 0.27 |  |  |
| HDGKNQPSKTYPAFLEPDETFIVP [SPSB1] | 4.28 ± 0.19 | 4.25 ± 0.39 |  |  |
| TFGAAACSIGFAVRYLNAYTGIVL [POP5] | 3.18 ± 0.57 | 3.45 ± 0.15 |  |  |
| QFTMGGPAISMASPMSIPTNTMHY [CARM1] | 2.54 ± 0.21 | 2.68 ± 0.18 |  |  |
| SDLGFEVKCFNDLKAEELLLKIHE [CASP6] | 2.48 ± 0.28 | 2.69 ± 0.37 |  |  |
| KGTFSDVTFKLDDGAISAHKPLLI [RHOBTB1] | 2.47 ± 0.32 | 2.55 ± 0.33 |  |  |
| SPESESDHEHEEADLELSLPECLE [GNAS] | 5.4 ± 0.38 | 5.57 ± 0.26 |  |  |
| MPKNSKVTQREHSSEHVTESVADL [SLC6A17] | 5.4 ± 0.14 | 5.45 ± 0.085 |  |  |
| AELLLAARLLGALAARSGAAYGPG [TSPAN10] | 2.93 ± 0.069 | 2.77 ± 0.73 |  |  |
| DLHKMNHVTPPNVSLGATGGPPAG [JUNB] | 4.38 ± 0.19 | 4.39 ± 0.078 |  |  |
| AQMSTLHVSPPPSADPARGLPRSR [PDLIM4] | 4.79 ± 0.2 | 4.86 ± 0.13 |  |  |
| LCEKFDYLYGILEERKNEMTQVIT [TRIM55] | 2.7 ± 0.15 | 2.88 ± 0.4 |  |  |
| KTKEVQHNCQLHRISFCADDKTDK [GULP1] | 4.66 ± 0.36 | 4.71 ± 0.21 |  |  |
| KIDLENTLEQEQEALVNRLWKRMD [CCDC6] | 3.23 ± 0.41 | 3.78 ± 0.39 |  |  |
